Measurements: US20140234872A1

Biological target: GST-SHP-1 ΔN+CSH2 (amino acids 276-end) (human) (UniProt P29350)
Assay: GST pulldown (FIG. 20B)

Sequence of GST-SHP-1 ΔN+CSH2 (amino acids 276-end) (human) (P29350 276-595, stated change not applied): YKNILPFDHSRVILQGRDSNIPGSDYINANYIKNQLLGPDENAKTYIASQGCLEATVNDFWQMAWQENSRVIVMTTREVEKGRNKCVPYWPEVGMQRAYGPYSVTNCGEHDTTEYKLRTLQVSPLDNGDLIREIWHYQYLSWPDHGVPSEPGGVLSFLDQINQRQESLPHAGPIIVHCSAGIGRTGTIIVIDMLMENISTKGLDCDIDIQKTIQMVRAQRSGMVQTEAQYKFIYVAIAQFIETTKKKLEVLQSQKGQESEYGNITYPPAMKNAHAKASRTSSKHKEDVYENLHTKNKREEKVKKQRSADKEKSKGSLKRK

- reduction of binding against full length SHP-1: 80%
B1: His-GIV-CT (aa 1660-1870), wild-type, not phosphorylated (mock- or sham-treated) (protein, not shown: small tags and cut ends)
chain: SETLESRHHKIKTGSPGSEVVTLQQFLEESNKLTSVQIKSSSQENLLDEVMKSLSVSSDFLGKDKPVSCGLARSVSGKTPGDFYDRRTTKPEFLRPGPRKTEDTYFISSAGKPTPGTQGKIKLVKESSLSRQSKDSNPYATLPRASSVISTAEGTTRRTSIHDFLTKDSRLPISVDSPPAAADSNTTAASNVDKVQESRNSKSRSREQQSS
